Measured values: patent publication US20110286916A1 (published 2011)

Assays:
[1] = target: T1, human full-length Notch1 with C-terminal FLAG tag, stably expressed on 293 FlpIn (TREx) cells (human, UniProt P46531 19-2555); assay: FACS, phage scFv
T1 construct: tetracycline/doxycycline-induced expression from pcDNA5/FRT/TO-HN1+FLAG; also called hN1; 293_N1

[2] = target: T2, human full-length Notch3 with C-terminal FLAG tag, stably expressed on 293 FlpIn (TREx) cells (human, UniProt Q9UM47 40-2321); assay: FACS, phage scFv
T2 construct: whole, on cells; made by the same strategy as the Notch1 line; also called 293-N3; hN3

B1: N1wc15 (scFv, V domains shown)
VH: QVQLQQSGAEVKKPGASVKVSCKASGYNFTGYYMHWVRQAPGQGLEWMGWINPNSGGTNYAQKFQGRVTMTRDTSISTAYMELSRLRSDDTAVYYCATDSFDYWGQGTMVTVSS
VL: not shown
notes: phage scFv
Q: Does B1 bind [1]?
A: binds

Q: Does B1 bind [2]?
A: binds

B2: N1wc131 (scFv, V domains shown)
VH: EVQLVQSGAEAKKPGASVKVSCKASGYNFTGYYMHWVRQAPGQGLEWMGWINPNSGGTNYAQKFQGRVTMTRDTSISTAYMELSRLRSDDTAVYYCATDSFDYWGQGTLVTVSS
VL: SYELTQPPSASGTPGQRVTISCSGTSSNIGINYVYWYQQLPRTAPKLLIYYNNQRPSGVPDRFSGSRSGTSASLAISGLRSEDEADYYCAAWDDSLSGLVFGTGTKLTVL
notes: phage scFv
Q: Does B2 bind [2]?
A: binds

B3: hN1S3-053 (scFv, V domains shown)
VH: EVQLVQSGAEVKKPGASVKVSCKASGYNFTGYYMHWVRQAPGQGLEWMGWINPNSGGTNYAQKFQGRVTMTRDTSISTAYMELSRLRSDDTAVYYCATDSFDYWGRGTTVTVSS
VL: QAVLTQPSSVSGAPGQRVTISCTGSRSNIGAGYDVHWYQQLPGTAPKLLIYGNSNRPSGVPDRFSGSKSGTSASLAITGLQAEDEADYYCQSYDSSLSGSVFGGGTKLTVL
notes: phage scFv
Q: What does the source list for B3?
A: binding result [1]: binds; binding result [2]: binds

B4: N1wc476 (scFv, V domains shown)
VH: EVQLVQSGAEVKKPGASVKVSCKASGYNFTGYYMHWVRQAPGQGLEWMGWINPNSGGTNYAQKFQGRVTMTRDTSISTAYMELSRLRSDDTAVYYCATDSFDYWGQGTLVTVSS
VL: QAVLTQPSSVSGTPGQTVTISCSGSNSNIGNNYVYWYQQLPGSAPKVVIYRNHQRPSGVPDRFSGSKSGTAASLAISGLRSEDEADYYCASWDDSLSGLVFGGGTKLTVL
notes: phage scFv
Q: Does B4 bind [2]?
A: binds

B5: N1wc516 (scFv, V domains shown)
VH: EVQLVESGAEVKKPGASVKVSCKASGYNFTGYYMHWVRQAPGQGLEWMGWINPNSGGTNYAQKFQGRVIMTRDTSISTAYMELSRLTSDDTAVYYCATDSFDYWGRGTLVTVSS
VL: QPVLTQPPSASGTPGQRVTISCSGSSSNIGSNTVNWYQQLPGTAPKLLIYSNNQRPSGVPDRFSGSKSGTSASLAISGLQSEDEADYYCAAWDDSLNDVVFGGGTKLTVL
notes: phage scFv
Q: What does the source list for B5?
A: binding result [1]: binds; binding result [2]: binds

B6: N1wc572 (scFv, V domains shown)
VH: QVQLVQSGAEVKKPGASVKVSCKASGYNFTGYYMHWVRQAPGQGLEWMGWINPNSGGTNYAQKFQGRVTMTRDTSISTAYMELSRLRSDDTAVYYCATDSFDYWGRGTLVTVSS
VL: LPVLTQPPSASGTPGQRVTISCSGSSSNIGSNPVNWYQQLPGSAPKLLVYSDDQRPSGVPDRFSGSKSGASASLAISGLQSEDESDYYCAAWDDSLNAVVFGGGTKVTVL
notes: phage scFv
Q: Which results are given for B6?
A: binding result [1]: binds; binding result [2]: binds

B7: hN1S3-092 (scFv, V domains shown)
VH: EVQLVQSGAEVKKPGASVKVSCKASGYNFTGYYMHWVRQAPGQGLEWMGWINPNSGGTNYAQKFQGRVTMTRDTSISTAYMELSRLRSDDTAVYYCATDSFDYWGQGTLVTVSS
VL: QSVLTQPPSASGTPGQRVTISCSGSSSNIGANYVYWYQQLPGTAPKLLIYKNDQRPSGVPDRFSGSKSGTSASLAISGLRSEDEADYYCAAWDDSLSGLVFGGGTKVTVL
notes: phage scFv
Q: Does B7 bind [1]?
A: binds

Q: Does B7 bind [2]?
A: binds

B8: hN1S3-038 (scFv, V domains shown)
VH: EVQLVQSGAEVKKPGASVKVSCKASGYNFTGYYMHWVRQAPGQGLEWMGWINPNSGGTNYAQKFQGRVIMTRDTSISTAYMELSRLTSDDTAVYYCATDSFDYWGRGTTVTVSR
VL: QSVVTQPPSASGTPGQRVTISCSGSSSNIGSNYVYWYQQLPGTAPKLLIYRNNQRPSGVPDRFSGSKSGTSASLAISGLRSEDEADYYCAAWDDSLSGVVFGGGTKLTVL
notes: phage scFv
Q: Does B8 bind [1]?
A: binds

Q: Does B8 bind [2]?
A: binds

B9: N1wc102 (scFv, V domains shown)
VH: QVQLVQSGAEVKKPGAPVKVSCKASGYNFTGYYMHWVRQAPGQGLEWMGWINPNSGGTNYAQKFQGRVAMTRDTSISTAYMELSRLRSDDTAVYYCATDSFDYWGQGTMVTVSS
VL: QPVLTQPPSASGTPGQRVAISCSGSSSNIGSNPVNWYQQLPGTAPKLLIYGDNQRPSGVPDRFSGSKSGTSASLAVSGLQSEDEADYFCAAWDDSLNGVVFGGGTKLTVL
notes: phage scFv
Q: Which results are given for B9?
A: binding result [1]: binds; binding result [2]: binds

B10: N1wc540 (scFv, V domains shown)
VH: EVQLVQSGAEVKKPGASVKVSCKASGYNFTGYYMHWVRQAPGQGLEWMGWINPNSGGTNYAQKFQGRVTMTRDTSISTAYMELSRLRSDDTAVYYCATDSFDYWGQGTMVTVSS
VL: QAVLTQPSSASGTPGQRVTISCSGSSSNIGSYTVNWYQQVPGTAPKLLIYSNNQRPSGVPERFSGSKSGTSASLAISGLQSEDEADYYCAAWDDSLSDVLFGGGTKLTVL
notes: phage scFv
Q: Does B10 bind [1]?
A: binds

Q: Does B10 bind [2]?
A: binds

B11: N1wc135 (scFv, V domains shown)
VH: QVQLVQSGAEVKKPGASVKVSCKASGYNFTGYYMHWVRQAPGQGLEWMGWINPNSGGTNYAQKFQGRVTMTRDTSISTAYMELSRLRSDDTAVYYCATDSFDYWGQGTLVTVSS
VL: LPVLTQPPSASGTPGQRVIISCSGSSSNIGSNYVYWYQQLPGTAPKLLIYRNNQRPSGVPDRFSGSKSGTSASLAISGLRSEDEADYHCAAWDDSLSGVVFGGGTKLTVL
notes: phage scFv
Q: Does B11 bind [1]?
A: binds

Q: Does B11 bind [2]?
A: binds

B12: hN1S3-001 (scFv, V domains shown)
VH: EVQLVQSGAEVKKPGASVKVSCKASGYNFTGYYMHWVRQAPGQGLEWMGWINPNSGGTNYAQKFQGRVTMTRDTSISTAYMELSRLRSDDTAVYYCATDSFDYWGQGTMVTVSS
VL: not shown
notes: phage scFv
Q: Does B12 bind [1]?
A: binds

Q: Does B12 bind [2]?
A: binds

B13: N1wc624 (scFv, V domains shown)
VH: QVQLQQSGAEVKKPGASVKVSCKASGYNFTGYYMHWVRQAPGQGLEWMGWINPNSGGTNYAQKFQGRVTMTRDTSISTAYMELSRLGSDDTAVYYCATDSFDYWGRGTLVTVSS
VL: not shown
notes: phage scFv
Q: Which results are given for B13?
A: binding result [1]: binds; binding result [2]: binds

B14: hN1S3-095 (scFv, V domains shown)
VH: EVQLVQSGAEVKKPGASVKVSCKASGYNFTGYYMHWVRQAPGRGLEWMGWINPNSGGTNYAQKFQGRVTMTRDTSISTAYMELSRLRSDDTAVYYCATDSFDYWGQGTLVTVSS
VL: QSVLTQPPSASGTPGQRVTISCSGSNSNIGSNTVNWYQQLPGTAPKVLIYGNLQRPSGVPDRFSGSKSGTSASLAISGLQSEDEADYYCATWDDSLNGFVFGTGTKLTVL
notes: phage scFv
Q: Does B14 bind [1]?
A: binds

Q: Does B14 bind [2]?
A: binds

B15: N1wc633 (scFv, V domains shown)
VH: QVQLQQSGAEVKKPGASVKVSCKASGYNFTGYYMHWVRQAPGQGLEWMGWINPNSGGTNYAQKFQGRVTMTRDTSISTAYMELSRLRSDDTAVYYCATDSFDYWGRGTLVTVSS
VL: QAVLTQPSSASGTPGQRVTISCSGSSSNIGSYTVNWYQQVPGTAPKLLIYSNNQRPSGVPERFSGSKSGTSASLAISGLQSEDEADYYCAAWDDSLSDVLFGGGTKVTVL
notes: phage scFv
Q: Does B15 bind [1]?
A: binds

Q: Does B15 bind [2]?
A: binds

B16: hN1S3-055 (scFv, V domains shown)
VH: QVQLVQSGAEVKKPGASVKVSCKASGYNFTGYYMHWVRQAPGQGPEWMGWINPNSGGTNYAQKFQGRVTMTRDTSISTAYMELSRLRSDDTAVYYCATDSFDYWGRGTMVTVSS
VL: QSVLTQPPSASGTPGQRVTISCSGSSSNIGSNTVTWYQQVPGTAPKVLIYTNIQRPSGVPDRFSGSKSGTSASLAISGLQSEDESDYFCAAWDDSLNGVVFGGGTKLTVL
notes: phage scFv
Q: Does B16 bind [1]?
A: binds

Q: Does B16 bind [2]?
A: binds

B17: hN1S3-091 (scFv, V domains shown)
VH: EVQLVQSGAEVKKPGASVKVSCKASGYNFTGYYMHWVRQAPGQGLEWMGWINPNSGGTNYAQKFQGRVTMTRDTSISTAYMELSRLRSDDTAVYYCATDSFDYWGQGTMVTVSS
VL: QSVLTQPPSATGTPGQTVSISCSGGNSNIGSNYVSWYQQLPGTAPKLLIYSNNQRPSGVPDRFSGSKSGTSASLAISGLQSEDEADYYCAAWDDSLNGHIFGTGTKLTVL
notes: phage scFv
Q: Does B17 bind [1]?
A: binds

Q: Does B17 bind [2]?
A: binds

B18: hN1S3-124 (scFv, V domains shown)
VH: EVQLVQSGAEVKKPGASVKVSCKASGYNFTGYYMHWVRQAPGQGLEWMGWINPNSGGTNYAQKFQGRVTMTRDTSISTAYMELSRLRSDDTAVYYCATDSFDYWGRGTTVTVSS
VL: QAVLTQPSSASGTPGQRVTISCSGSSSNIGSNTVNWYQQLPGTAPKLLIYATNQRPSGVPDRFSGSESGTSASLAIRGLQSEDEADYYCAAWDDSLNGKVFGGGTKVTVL
notes: phage scFv
Q: Does B18 bind [1]?
A: binds

Q: Does B18 bind [2]?
A: binds

B19: N1wc248 (scFv, V domains shown)
VH: EVQLVQSGAEVKKPGASVKVSCKASGYNFTGYYMHWVRQAPGQGLEWMGWINPNSGGTNYAQKFQGRVTMTRDTSISTAYMELSRLRSDDSAVYYCATDSFDYWGRGTLVTVSS
VL: QSVLTQPPSASGTPGQRVTISCSGSSSNIGSNSVYWYQQFPGTAPKLLIYRNNQRPSGVPDRFSGSKSDTSASLAISGLRSEDEADYYCATWDDSLSGVVFGGGTKLTVL
notes: phage scFv
Q: Does B19 bind [1]?
A: binds

Q: Does B19 bind [2]?
A: binds

B20: hN1S3-036 (scFv, V domains shown)
VH: EVQLVQSGAEVKKPGASVKVSCKASGYNFTGYYMHWVRQAPGQGLEWMGWINPNSGGTNYAQKFQGRVTMTRDTSISTAYMELSRLRSDDTAVYYCATDSFDYWGRGTMVTVSS
VL: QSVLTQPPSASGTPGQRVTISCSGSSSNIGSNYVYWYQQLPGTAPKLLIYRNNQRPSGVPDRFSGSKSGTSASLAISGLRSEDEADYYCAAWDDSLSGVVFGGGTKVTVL
notes: phage scFv
Q: Does B20 bind [1]?
A: binds

Q: Does B20 bind [2]?
A: binds

B21: hN1S3-096 (scFv, V domains shown)
VH: EVQLVQSGAEVKKPGASVKVSCKASGYNFTGYYMHWVRQAPGQGLEWMGWINPNSGGTNYAQKFQGRVTMTRDTSISTAYMELSRLRSDDTAVYYCATDSFDYWGRGTTVTVSS
VL: QPVLTQPPSASGTPGQRVTISCSGSSSNIASNSVYWYQQLPGTAPKLLIYRNNQRPSGVPDRFSGSQSGASASLAISGLRSEDEADYYCAAWDDNLYGVVFGGGTKLTVL
notes: phage scFv
Q: Does B21 bind [1]?
A: binds

Q: Does B21 bind [2]?
A: binds

B22: hN1S3-023 (scFv, V domains shown)
VH: EVQLVQSGAEVKKPGASVKVSCKASGYNFTGYYMHWVRQAPGQGLEWMGWINPNSGGTNYAQKFQGRVTMTRDTSISTAYMELSRLRSDDTAVYYCATDSFDYWGQGTMVTVSS
VL: not shown
notes: phage scFv
Q: Does B22 bind [1]?
A: binds

Q: Does B22 bind [2]?
A: binds

B23: hN1S3-032 (scFv, V domains shown)
VH: EVQLVQSGAEVKKPGASVKVSCKASGYNFTGYYMHWVRQAPGQGLEWMGWINPNSGGTNYAQKFQGRVTMTRDTSISTAYMELSRLRSDDTAVYYCATDSFDYWGKGTLVTVSS
VL: QAVLTQPSSVSGAPGQRVTISCTGSSSNIGAGYDVHWYRQLPGTAPKLLLYGNDNRPSGVPDRFSGSKSGASASLAITGLRADDEADYYCQSYDSSLSGSVFGGGTKVTVL
notes: phage scFv
Q: Does B23 bind [1]?
A: binds

Q: Does B23 bind [2]?
A: binds

B24: N1wc403 (scFv, V domains shown)
VH: EVQLVQSGAEVKKPGASVKVSCKASGYNFTGYYMHWVRQAPGQGLEWMGWINPNSGGTNYAQKFQGRVTMTRDTSISTAYMELSRLRSDDTAVYYCATDSFDYWGRGTLVTVSS
VL: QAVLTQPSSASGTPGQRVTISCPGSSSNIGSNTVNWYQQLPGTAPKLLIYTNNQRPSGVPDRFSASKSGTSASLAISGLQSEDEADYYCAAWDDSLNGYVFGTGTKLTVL
notes: phage scFv
Q: Does B24 bind [1]?
A: binds

Q: Does B24 bind [2]?
A: binds

B25: hN1S3-181 (scFv, V domains shown)
VH: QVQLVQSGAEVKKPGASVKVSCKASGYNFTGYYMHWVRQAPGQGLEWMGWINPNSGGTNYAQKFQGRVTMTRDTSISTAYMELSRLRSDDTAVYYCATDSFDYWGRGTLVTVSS
VL: SYVLTQPPSASGTPGQRVTISCSGSSPNIGSNTVNWYQQLPGTAPKLLIYTNNQRPSGVPDRFSGSKSATSASLAISGLQFDDEADYFCAAWDDSLLGVVFGGGTKVTVL
notes: phage scFv
Q: Does B25 bind [1]?
A: binds

Q: Does B25 bind [2]?
A: binds
